Data reported in patent US6429014B1, “Monoterpene synthases from grand fir (Abies grandis)” (Washington State University Research Foundation, priority 1997, dated 2002).

Experiment: Terpene synthase assay and GC-MS / chiral GC product identification of recombinant enzymes expressed from pSBET in E. coli BL21(DE3) (Example 11)
Type: biochemical
Conditions: extracts of induced cells
Procedure: For functional expression, bacterial strains E. coli BL21(DE3)/pSAG2(M), E. coli BL21(DE3)/pSAG2(R), E. coli BL21(DE3)/pSAG3(R), E. coli BL21(DE3)/pSAG6(M), E. coli BL21(DE3/pSAG6(R), E. coli BL21(DE3)/pSAG8(M), E. coli BL21(DE3)/pSAG9(M), E. coli BL21(DE3)/pSAG11(M) and E. coli BL21(DE3)/SAG11(R) were grown to A600=0.5 at 37° C. in 5 ml of Luria-Bertani medium (Sambrook, J., Fritsch, E. F., and Maniatis, T. (1989) Molecular Cloning: A Laboratory Manual, 2nd Ed., pp. 7.20-7.43, Cold Spring Harbor, N.Y.) supplemented with 30 μg kanamycin/ml. Cultures were then induced by addition of 1 mM isopropyl-1-thio-β-D-galactopyranoside and grown for another 12 h at 20° C. Cells were harvested by centrifugation and disrupted by sonication followed by centrifugation, and the resulting soluble enzyme preparations were assayed for monoterpene, sesquiterpene and diterpene synthase activity using the appropriate radiolabeled substrate as described previously (Bohlmann, J., Steele, C. L., and Croteau, R. (1997) J. Biol. Chem. 272, 21784-21792). This assay involves the isolation and separation of terpene olefins and oxygenated terpenes by column chromatography on silica, followed by scintillation counting to determine conversion rate. GC-MS analysis is employed for product identification, by comparison of retention times and mass spectra to those of authentic standards (Bohlmann, J., Steele, C. L., and Croteau, R. (1997) J. Biol Chem. 272, 21784-21792); assignment of absolute configuration is based upon chiral column capillary GC and matching of retention time to that of the corresponding enantiomer (Lewinsohn, E., Savage, T. J., Gijzen, M., and Croteau, R. (1993) Phytochem. Anal. 4, 220-225). To insure production of sufficient material for identification, the standard assay (Bohlmann, J., Steele, C. L., and Croteau, R. (1997) J. Biol. Chem. 272, 21784-21792) was scaled up by a factor of 20.
Initially, the four pSBET plasmids pSAG6(M), pSAG8(M), pSAG9(M) and pSAG11(M), containing the full-length cDNA inserts of ag6 (SEQ ID NO:64), ag8 (SEQ ID NO:66), ag9 (SEQ ID NO:77) and ag11 (SEQ ID NO:68), respectively, were expressed in E. coli BL21(DE3). Extracts of the induced, transformed bacterial cells were assayed for monoterpene, sesquiterpene and diterpene synthase activity using the corresponding labeled C10, C15 and C20 prenyl diphosphate substrates (Bohlmann, J., Steele, C. L., and Croteau, R. (1997) J. Biol. Chem. 272, 21784-21792). […] Since it is known that the relatively large amino-terminal transit peptide of plant terpene synthases can impair expression of the functional preprotein in E. coli and promote the formation of intractable inclusion bodies (Williams, D. C., McGarvey, D. J., Katahira, E. J., and Croteau, R. (1998) Biochemisiry 37, 12213-12220), the“pseudomature” forms of ag6 (SEQ ID NO:64) and ag11 (SEQ ID NO:68) were prepared by truncation of the cDNAs to insert a starting methionine immediately upstream of their tandem arginine elements (R59R 60 for ag6 (SEQ ID NO:64), R^71R^72 for ag11 (SEQ ID NO:68)) for expression in E. coli BL21(DE3)/pSAG6(R) and E. coli BL21(DE3)/pSAG11(R). Similar truncations of previously characterized ag2.2 (SEQ ID NO:1) (myrcene synthase, R^64R^65) and ag3.18 (SEQ ID NO:3) ((−)-pinene synthase, (SEQ ID NO:5) R^64R^65) (Bohlmann, J., Steele, C. L., and Croteau, R. (1997) J. Biol. Chem. 272, 21784-21792) were prepared for expression from pSBET as controls for the possible alteration of product yield and distribution resulting from truncation.
Monoterpenes generated at preparative scale from geranyl diphosphate by the recombinant enzymes encoded by ag6 (SEQ ID NO:64), ag8 (SEQ ID NO:66), ag9 (SEQ ID NO:77) and ag11 (SEQ ID NO:68) were analyzed by GC-MS and chiral phase (β-cyclodextrin) capillary GC, and identified by comparison of retention times and mass spectra to authentic standards (FIGS. 6-9). […] The enzyme encoded by ag6 (SEQ ID NO:65) is therefore designated as (−)-1S,4R-camphene synthase. […]

B1: AG3.18: recombinant (−)-pinene synthase from Grand fir encoded by cDNA clone AG3.18 (SEQ ID NO:3; protein SEQ ID NO:4) (protein, listed as Abies grandis)
chain: MALVSTAPLASKSCLHKSLISSTHELKALSRTIPALGMSRRGKSITPSISMSSTTVVTDDGVRRRMGDFHSNLWDDDVIQSLPTAYEEKSYLERAEKLIGEVKNMFNSMSLEDGELMSPLNDLIQRLWIVDSLERLGIHRHFKDEIKSALDYVYSYWGENGIGCGRESVVTDLNSTALGLRTLRLHGYPVSSDVFKAFKGQNGQFSCSENIQTDEEIRGVLNLFRASLIAFPGEKIMDEAEIFSTKYLKEALQKIPVSSLSREIGDVLEYGWHTYLPRLEARNYIQVFGQDTENTKSYVKSKKLLELAKLEFNIFQSLQKRELESLVRWWKESGFPEMTFCRHRHVEYYTLASCIAFEPQHSGFRLGFAKTCHLITVLDDMYDTFGTVDELELFTATMKRWDPSSIDCLPEYMKGVYIAVYDTVNEMAREAEEAQGRDTLTYAREAWEAYIDSYMQEARWIATGYLPSFDEYYENGKVSCGHRISALQPILTMDIPFPDHILKEVDFPSKLNDLACAILRLRGDTRCYKADRARGEEASSISCYMKDNPGVSEEDALDHINAMISDVIKGLNWELLKPDINVPISAKKHAFDIARAFHYGYKYRDGYSVANVETKSLVTRTLLESVPL
terpene synthase activity on expression from pSBET in E. coli BL21(DE3): high level expression of activity
